The values below come from article PMC2760630.

The series concerns [H][C@@]12COP(=O)(O)O[C@@]1([H])[C@@H](O)[C@H](n1cnc3c(=O)[nH]c(N)nc31)O2. Briefly: purified protein.
Where [1] appears, read: catalytic site (Km, reduced affinity), allosteric cGMP binding unchanged.

As to “PDE5 (human PDE5A1, G659A) (Homo sapiens; G659A)”, the Km under setting [1] turned out to be 71.2 ± 1.2 µM. For the substance “PDE5 (human PDE5A1, G659P) (Homo sapiens; G659P)”, the Km under setting [1] is given as 131.5 ± 7.4 µM.

Regarding PDE5 (human PDE5A1, WT) (Homo sapiens), for the setting “catalytic site (Km), also allosteric site”, the Km was determined as 2.91 ± 0.8 µM.

As a reminder, the Km is the concentration of substrate that gives half-maximal velocity.
